Results published in patent US20200268901A1.
pEC50: −log10 of the molar value.

Biological target: human GITR on cells (activated human T cells; 3A9-hGITR cells) (human) (UniProt Q9Y5U5)
Test: flow cytometry on anti-CD3/CD28-activated human CD4 T cells, GMFI (PE); fitted value of a flat control curve, unit from the axis

Sequence of human GITR on cells (activated human T cells; 3A9-hGITR cells) (human) (Q9Y5U5 26-241): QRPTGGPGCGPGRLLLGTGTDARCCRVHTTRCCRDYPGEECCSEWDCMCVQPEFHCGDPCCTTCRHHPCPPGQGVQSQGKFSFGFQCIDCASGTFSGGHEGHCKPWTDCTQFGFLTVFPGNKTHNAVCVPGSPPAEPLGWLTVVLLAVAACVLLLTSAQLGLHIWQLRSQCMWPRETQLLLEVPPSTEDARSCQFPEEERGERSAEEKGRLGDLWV

**Q.** With hIgG1 Isotype Control (antibody) as the substance, how does the pEC50 read?
**A.** 6.88
